Measured values: paper PMC9478129

Assays:
[1] = tested on: Aa-Cascade Avi-Cas6f, mSav-ATTO647N labelled (Aggregatibacter actinomycetemcomitans); assay: single-molecule DNA curtains; conditions: EMSA: 1x TAE, 200 mM NaCl, 10% glycerol, 0.1 mg/mL BSA, 20 nM DNA, 37 C (22 C for AcrIF9 mutants), 1% agarose, footprint: same buffer, 2 mM KMnO4, AFM: …
[2] = tested on: Aa-Cascade Avi-Cas6f, mSav-ATTO647N labelled;Aa1-AcrIF9 (Aggregatibacter actinomycetemcomitans;Aggregatibacter actinomycetemcomitans?); assay: single-molecule DNA curtains; conditions: with AcrIF9, mean off-target dwell time 18.6 s, EMSA: 1x TAE, 200 mM NaCl, 10% glycerol, 0.1 mg/mL BSA, 20 nM DNA, 37 C (22 C for AcrIF9 mutants), 1% agarose, footprint: same buffer, 2 mM KMnO4, AFM: …

## bacteriophage lambda DNA with target
[1]
  binding signal (% on-target events): 18
[2]
  binding signal (% on-target events): 8
